Data from the nanobody polyreactivity screen of Harvey et al. (2022).

Test: yeast display, Sf9 membrane polyspecificity reagent, FACS + sequencing; frameworks hold sequencing errors
Summary of the method: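 Galactose induction of a Saccharomyces cerevisiae BJ5465 synthetic nanobody display library ran 36–48 hours. The cells were then stained for 1 hour at 4 °C with 10% biotinylated, detergent-solubilized Sf9 membrane reagent, pulled down on streptavidin microbeads and FACS-sorted into low and high (top ~1%) gates on expression and reagent-binding fluorescence. Labels for polyreactivity follow the gate of origin.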

Row | Sequence | polyreactivity (PSR sort gate)
1 | QVQLVESGGGLVQAGGSLRLSCAASGRTFYQNVMGWSRQAPGKERELVAAITWGGGSTYYADSVKGRFTISRDNAKNTVYLQMNSLKPEDTAVYYCNRTFRSRLPTSRGYDYWGQGTQVTVSS | low polyreactivity
2 | QVQLVESGGGLVQAGGSLRLSCAASGRTFYRNAMGWSRQAPGKERELVAAISSTGSTYYAESVKGRFTSSRDNAKNTVYLQMNSLKPEDTAVYYCARGVHGIFGYLGQGTQVTVSS | low polyreactivity
3 | QVQLVESGGGLVQAGGSLRLSCAASGRTFYRNAMGWYRQAPGKERELVAAISSTGSTYSADSVKGRFTISRDNAKNTVYLQMNSLKPEDTAVYYCARGVHGIFGYWGQGTQVTVSS | low polyreactivity
4 | QVQLVESGGGLVQAGGSLRLSCAASGRTFYRNAMGWYRQAPGKERELVARISRNGGTTYYADSVKGRFTISRDNAKNTVYLQMNSLKPEDTAVYYCAAPIYDGARGDYWGQGTQVTVSS | high polyreactivity
5 | QVQLVESGGGLVQAGGSLRLSCAASGRTFYRNAMGWYRQAPGKERELVGAISQSGGSTYYADSVKGRFKISRDNAKNTVYLQMNCLIPEDTAVYSCAAGKSRRVGMDYWGQGTQVTVSS | high polyreactivity
6 | QVQLVESGGGLVQAGGSLRLSCAASGRTFYRNAMGWYRQAPGKETELVAAITWSGVSTYYADSVKGRFTISRDNAKNTVYIQMNSLKPEDTAVYYCSRARVLRNGHYFQLRNYDYWGQGPQVTVSS | high polyreactivity
7 | QVQLVESGGGLVQAGGSLRLSCAASGRTFYRNAMGWYRQARGKERELVAAISSRGGSTYYADSVKGRFTISRDNAKNTVYLQMNSLKPEDTAVYYCAARYLYLWADYEYGYWGQGTQVTVSS | high polyreactivity
8 | QVQLVESGGGLVQAGGSLRLSCAASGRTFYRYAMGWYRQAPGKERELVAAISGSGGRTYYADSVKGRFTISRDNAKNTVYFQMNSLKPEDTAVYYCNAYPHAYTGSTREGDYWGQGTQVTVSS | high polyreactivity
9 | QVQLVESGGGLVQAGGSLRLSCAASGRTFYRYAMGWYRQAPGKERELVAAITTGGGSTYYADSVKGRFTISRDNAKNTVYLQMNSLKPEETAVYYCNVYSSYTRRTLGDYWGQGTQVTVSS | high polyreactivity
10 | QVQLVESGGGLVQAGGSLRLSCAASGRTFYRYAMGWYRQAPGKERELVAAITWSGGSTYYADSVKGRFTTSRDNAKNTVYFQMNSLKPEDTAVYYCARRLYPYRPTAYDYWGQGTQVTVSS | low polyreactivity
11 | QVQLVESGGGLVQAGGSLRLSCAASGRTFYRYAMGWYRQAPGKERELVAGITSGGITYYADSVKGRFTISRDNAKNTVYLQMNSLKPEDTAVYYCAASYAFFSYRAWYTSGNEYWGQGTQVTVSS | high polyreactivity
12 | QVQLVESGGGLVQAGGSLRLSCAASGRTFYRYAMGWYRQAPGKERELVARITNRGGITYYADSVKGRFTISRDNAKNTVYLQMNSLKPEDTAVYYCAADPIGYTWAGTHGDYYNEHDYWGQGTQVTVSS | low polyreactivity
13 | QVQLVESGGGLVQAGGSLRLSCAASGRTFYRYAMGWYRQAPGKERELVAVISGRGGGTYYADSVKGRFTISRDNAKNTVYLQMNSLKPEDTAVYYCAKEYWGVTPTYYYWGQGTQVTVSS | high polyreactivity
14 | QVQLVESGGGLVQAGGSLRLSCAASGRTFYRYTMGWYRQAPGKERELVAAIDRRGGSTYYADSVKGRFTISRDNAKNTVYLQMNSLKPEDTAVYYCNAVTHYSFDYWGQGTQVTVSS | high polyreactivity
15 | QVQLVESGGGLVQAGGSLRLSCAASGRTFYSKAMGWYRQAPGKERELVAAISSSGSSTSYADSVKGRFTMSRDNAKNTVYLQMNSLKPEDTAVYYCAARTKRRANRDYWGQGTQVTVSS | high polyreactivity
16 | QVQLVESGGGLVQAGGSLRLSCAASGRTFYSNAKGWSRQAPGKERELVAGISKRGTITYYADSVKGRFTISRDNAKNTVYLQMNSLKPEDTAVYYCAAKPPSYIVKGDGRDDYWGQGTQVTVSS | high polyreactivity
17 | QVQLVESGGGLVQAGGSLRLSCAASGRTFYSNAMGWYRQAPGKERELVAAIRRSRGRTYYADSVKGRFTISRDIAKNTVYLQMNSLKPEDTAVYYCATARYRAEMGYWGQGTQVTVSS | high polyreactivity
18 | QVQLVESGGGLVQAGGSLRLSCAASGRTFYSNAMGWYRQAPGKERELVAAISSSGGRTFYADSVKGRFTISRDNAKNTVYLQMNSLKPEDTAVYYCAAVPGYPRDSLYNYWGQGTQVTVSS | high polyreactivity
19 | QVQLVESGGGLVQAGGSLRLSCAASGRTFYSNAMGWYRQAPGKERELVAAISYNDGSTYYADSVKGRFTISRDNAKNTVYLQMNSLKPEDTAVYYCNADVGAWAWYTRYDYWGQGTQVTVSS | low polyreactivity
20 | QVQLVESGGGLVQAGGSLRLSCAASGRTFYSNTIGWYRQAPGNESELVAAINRGGSTYYADSVKGRFTISRDNAKNTVYFQMNSLKPEDTAVYYCAVGYAHSSNRRYYYKKTHGYWGQGTQVTVSS | low polyreactivity
21 | QVQLVESGGGLVQAGGSLRLSCAASGRTFYSYAMGWYIQAPGKERELVATINRGSGTNYADSVKGRFTISRDNAKNSVYLQMNSLKPEDSAVYSCAVDRRVLWYHMDYWGQGTKVTVSS | high polyreactivity
22 | QVQLVESGGGLVQAGGSLRLSCAASGRTFYSYAMGWYRQAPGKERELVAAISAGGSTYYADSVKGRFTISRDNAKNTVYLQMNSLKPEDTAVYYCAATYSYYYARYHYWGQGTQVTVSS | high polyreactivity

Row | Sequence | polyreactivity (PSR sort gate)
23 | QVQLVESGGGLVQAGGSLRLSCAASGRTFYSYAMGWYRQAPGKERELVAGITWSGTSTYYADSVKGRFTISRDNAKNTVYLQMNSLKPEDTAVYYCAAATLYSRYDYWGQGTQVTVSS | low polyreactivity
24 | QVQLVESGGGLVQAGGSLRLSCAASGRTFYSYAMGWYRQAPGKERELVASISYGGGTNYADSVKGRFTISRDNAKNTVYLQMNSLKPEDTAVYYCAAKYWFFYPYDYWGQGTQVTVSS | low polyreactivity
25 | QVQLVESGGGLVQAGGSLRLSCAASGRTFYSYTMGWYRPAPGKERELVAAISSRGGSTYYADSVKGRFTISRDNAKNTVYLQMNSLKPEDTAVYYCNAARYGRHLSTYDYWGQGTQVTVSS | high polyreactivity
26 | QVQLVESGGGLVQAGGSLRLSCAASGRTFYTYAMGWYRQAPGKARELVAAISSSGSTYYADSVKGRFTISRDNAKNTVDLQMNSLKPEDTAGYYCNARTSRYRRGGDSWGQGTQVTVSS | high polyreactivity
27 | QVQLVESGGGLVQAGGSLRLSCAASGRTFYTYVMGWYRQAPGKEREFVAAITYSGGSTYYADSVKGRFTISRDNAKNTVYLQMNSLKPEDTAVYYCNDEWTYSEWYGQYLEFDYWGQGTQVTVSS | high polyreactivity
28 | QVQLVESGGGLVQAGGSLRLSCAASGRTFYVKSMGWYRQAPGKERELVAGISFSDGSTYYADSVKGRFTISRDNAKNTVYLQMNSLKPEDTAVYYCATVGAFDIYYGYGYWGQGTQVTVSS | low polyreactivity
29 | QVQLVESGGGLVQAGGSLRLSCAASGRTFYVNAMGWSRHAPGIERELVAGISFSDGSTYYADSVKWRFTISRDNAKSTVYLQMNSLKPEDTAVYYCATVGALDIYYGYGYWGQGTQVTVSS | low polyreactivity
30 | QVQLVESGGGLVQAGGSLRLSCAASGRTFYVSAMGWYRQAPGKERELVAAISWSGGSTYYADSVKGRFTISRDNAKNTVYLQMNSLKPEDTAVYYCAAQTYQRHVVAYDYWGQGTQVTVSS | low polyreactivity
31 | QVQLVESGGGLVQAGGSLRLSCAASGRTFYVYAMGWYIQAPGKERELVAAISWGGGSTYYSDSVKGRFTISRDNAKNTVYLQMNSLKPEDTAVYFCAADKTRYRLGRDYWGQGTQVTVSS | low polyreactivity
32 | QVQLVESGGGLVQAGGSLRLSCAASGRTFYVYAMGWYRQAPGKERELVAAISKSGGSTYYADSVKGRFTISRDNAKNTVYLQMNSLKPEDTAVYYCAARKSDPRTKLYNYWGQGTQVTVSS | high polyreactivity
33 | QVQLVESGGGLVQAGGSLRLSCAASGRTFYVYTMGWYRQAPGKERELVAAITSGGSTNYADSVKGRFTISRDNAKNTVYLQMNSLKPEDTAVYYCAARVSTVFKRYYYWGQGTQVTVSS | high polyreactivity
34 | QVQLVESGGGLVQAGGSLRLSCAASGRTFYWNPMGWYRQAPGKERELVAAITRNGGSTYYADSVKGRFTISRDNAKNTVYLQMNSLKPEDTAVYYCAARKRYGAGYDYWGQGTQVTVSS | high polyreactivity
35 | QVQLVESGGGLVQAGGSLRLSCAASGRTFYWYTMGWYRQAPGKERELVAGIRSGGYTNYADSVKGRFTISRDNAKNTVYLQMNSLKPEDTAVYYCAAGGYSSAYGVSYGSYYYWGQGTQVTVSS | low polyreactivity
36 | QVQLVESGGGLVQAGGSLRLSCAASGRTFYYAMGWYRQAPGKERELVASITWSGGITTYADSVKGRFTISRDNAKNTVYLQLNSLKPEDTAVYYCAAQVIKGRTYQLGDYWGQGTQVTVSS | high polyreactivity
37 | QVQLVESGGGLVQAGGSLRLSCAASGRTFYYAMGWYRQAPGKERELVASITWSGGITTYADSVKGRFTISRDNAKNTVYLQMNSLKPEDTAVYSCAAQVIKGRTYQLGDYWGQGTQVTVSS | high polyreactivity
38 | QVQLVESGGGLVQAGGSLRLSCAASGRTFYYNAMGSYRQAPGKEREFVAAITWSGTRTYYADSVKGRFTISRDNAKNTVYLQMNSLKPEDTAVYYCAARRGVQGTQYYYWGQGTQVTVSS | high polyreactivity
39 | QVQLVESGGGLVQAGGSLRLSCAASGRTFYYNAMGWDRQAPGKESELVARITYRSGRTNYADSVKGRFTISRDNAKNTVYLQMNSLKPEDTAVYYCAAAWWCGAGRTRYEYWGQGTQVTVSS | high polyreactivity
40 | QVQLVESGGGLVQAGGSLRLSCAASGRTFYYNAMGWYRQAPGKERELVAAISSGDTTKYADSVKGRFTISRDNAKNTVYLQMNSLKPEDTAVYYCAAVYQSYTYYLPKYWSFYQNDYWGLGTQVTVSS | low polyreactivity
41 | QVQLVESGGGLVQAGGSLRLSCAASGRTFYYNGMGWYRQAPGKERELVAAITSGGTTSYADSVKGRFTISRDNAKNTVYLQMNSLKPEDTAVYYCAKRTVPRYEYWGQGTQVTVSS | low polyreactivity
42 | QVQLVESGGGLVQAGGSLRLSCAASGRTFYYNTMGWYSQAPGKERELVATISRIGGSTYYADSVKGRFTISRDNAKNTVYLQMNSLKPEDTAVYYCAAYVAAYPTGYDYWGQGTQVTVSS | high polyreactivity
43 | QVQLVESGGGLVQAGGSLRLSCAASGRTFYYNVMGWYRQAPGKESELVAAITNSGSTNYADSVKGRFTISRDNAKNTVYLQMNSLKPEDTAVYYCAARITYYGRKRGSRDYWGQGTQVTVSS | high polyreactivity
